Experimental data reported in patent US20070059727A1.

Biological target: microtubules assembled from fluorescein-modified bovine brain tubulin (α-/β-tubulin heterodimers) (bovine)
Assay: cell-based or functional assay

Glutathione S-Transferase (GST)-tagged γ-Tubulin fusion protein (from UniProt P23258 1-451)
average MT length after 5 min of polymerization (MTs on GST-γ-tubulin-functionalized gold pads against MTs grown in solution): 1.68 micron | average MT length after 10 min of polymerization (MTs on GST-γ-tubulin-functionalized gold pads against MTs grown in solution): 3.47 micron
